The labels stand for the following.
T1: recombinant human activated FVII (FVIIa) (human, UniProt P08709 61-212; P08709 213-466, ten glutamate residues of the Gla domain may be gamma-carboxylated)
T1 sequence 1: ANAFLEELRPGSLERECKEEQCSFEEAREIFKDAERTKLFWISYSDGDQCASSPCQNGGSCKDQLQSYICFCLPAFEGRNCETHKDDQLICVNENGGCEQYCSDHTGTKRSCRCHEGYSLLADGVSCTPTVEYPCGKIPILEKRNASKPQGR
T1 sequence 2: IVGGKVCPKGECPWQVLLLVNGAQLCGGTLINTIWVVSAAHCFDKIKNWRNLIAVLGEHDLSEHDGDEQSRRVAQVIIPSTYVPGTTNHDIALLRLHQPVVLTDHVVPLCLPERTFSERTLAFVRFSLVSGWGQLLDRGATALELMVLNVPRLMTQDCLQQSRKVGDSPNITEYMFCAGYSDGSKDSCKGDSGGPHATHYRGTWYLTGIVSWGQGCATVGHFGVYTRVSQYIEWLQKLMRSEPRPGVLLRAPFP

T2: sTLT1 (SEQ ID No: 3 with six histidine residues added at the C-terminus) (human, UniProt Q86YW5 16-162)
T2 construct: Soluble TLT-1 used in SPR
T2 sequence: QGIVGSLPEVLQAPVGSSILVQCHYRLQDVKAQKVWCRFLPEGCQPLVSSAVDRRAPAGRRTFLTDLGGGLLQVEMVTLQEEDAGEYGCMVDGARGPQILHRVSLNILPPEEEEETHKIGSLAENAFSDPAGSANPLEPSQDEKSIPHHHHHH

T3: recombinant human activated Factor VII (FVIIa) (human, UniProt P08709 61-212; P08709 213-466, Gla domain: ten glutamate residues may be gamma-carboxylated)
T3 construct: two-chain form after cleavage between Arg152 and Ile153; light chain (Gla, EGF domains) and heavy chain (protease domain) tethered by a disulfide bond; also called rFVIIa; human FVIIa
T3 sequence 1: T1 sequence 1
T3 sequence 2: T1 sequence 2

B1: biAb0001 (bispecific antibody, human IgG4 S228P, kappa)
heavy 1: QVQLQESGPGLVKPSQTLSLTCTVSGYSISSDSAWSWIRQPPGKGLEWIGYIQYSGSTNYNPSLKSRVTISRDTSKNQFSLKLSSVTAADTAVYYCARSVNYYGNSFAVGYWGQGTLVTVSSASTKGPSVFPLAPCSRSTSESTAALGCLVKDYFPEPVTVSWNSGALTSGVHTFPAVLQSSGLYSLSSVVTVPSSSLGTKTYTCNVDHKPSNTKVDKRVESKYGPPCPPCPAPEFLGGPSVFLFPPKPKDTLMISRTPEVTCVVVDVSQEDPEVQFNWYVDGVEVHNAKTKPREEQFNSTYRVVSVLTVLHQDWLNGKEYKCKVSNKGLPSSIEKTISKAKGQPREPQVYTLPPSQEEMTKNQVSLTCLVKGFYPSDIAVEWESNGQPENNYKTTPPVLDSDGSFLLYSKLTVDKSRWQEGNVFSCSVMHEALHNHYTQKSLSLSLGK
light 1: EIVLTQSPATLSLSPGERATLSCRASQGISDYLHWYQQKPGEAPRLLIKYTSQPATGIPARFSGSGSGTDFTLTISSLEPEDFAVYYCQNGHSFPLTFGQGTKLEIKRTVAAPSVFIFPPSDEQLKSGTASVVCLLNNFYPREAKVQWKVDNALQSGNSQESVTEQDSKDSTYSLSSTLTLSKADYEKHKVYACEVTHQGLSSPVTKSFNRGEC
heavy 2: not shown
light 2: DIVMTQTPLSSPVTLGQPASISCRSSQSLVHRQGNTYFHWLQQRPGQPPRLLIYKVSNRFSGVPDRFSGSGAGTDFTLKISRVEAEDVGVYYCSQSTHVPYTFGQGTKLEIKRTVAAPSVFIFPPSDEQLKSGTASVVCLLNNFYPREAKVQWKVDNALQSGNSQESVTEQDSKDSTYSLSSTLTLSKADYEKHKVYACEVTHQGLSSPVTKSFNRGEC
notes: Duobody, constant domain type H (IgG4): anti-FVII(a) arm mAb0865, anti-TLT-1 arm mAb1076; also called anti-FVII(a)/anti-TLT-1 bispecific antibody; mAb0865 x mAb1076
B2: biAb0095 (bispecific antibody, human IgG4 S228P, kappa)
heavy 1: B1 heavy 1
light 1: B1 light 1
heavy 2: not shown
light 2: B1 light 2 with Q33N
notes: Duobody, constant domain type H (IgG4): anti-FVII(a) arm mAb0865, anti-TLT-1 arm mAb1047; also called mAb0865 x mAb1047
B3: biAb0015 (bispecific antibody, human IgG4 S228P, kappa)
heavy 1: B1 heavy 1
light 1: B1 light 1
heavy 2: not shown
light 2: B1 light 2 with Q33P
notes: Duobody, constant domain type H (IgG4): anti-FVII(a) arm mAb0865, anti-TLT-1 arm mAb1038; also called mAb0865 x mAb1038
B4: biAb0090 (bispecific antibody, human IgG4 S228P, kappa)
heavy 1: B1 heavy 1
light 1: B1 light 1
heavy 2: not shown
light 2: B1 light 2 with Q33N
notes: Duobody, constant domain type H (IgG4): anti-FVII(a) arm mAb0865, anti-TLT-1 arm mAb1049; also called mAb0865 x mAb1049
B5: biAb0099 (bispecific antibody, human IgG4 S228P, kappa)
heavy 1: B1 heavy 1 with Q1D, A108W, G110D, Y111P
light 1: DIVMTQSPATLSVTAGDRVSLSCRASQGISDYLHWYQQKSHESPRLLIKYTSQPVSGIPSRFSGSGSGSEFTLSINSVEPEDVGVYYCQNGHSFPLTFGAGTKLELKRTVAAPSVFIFPPSDEQLKSGTASVVCLLNNFYPREAKVQWKVDNALQSGNSQESVTEQDSKDSTYSLSSTLTLSKADYEKHKVYACEVTHQGLSSPVTKSFNRGEC
heavy 2: not shown
light 2: B1 light 2 with Q33N
notes: Duobody, constant domain type H (IgG4): anti-FVII(a) arm mAb0873, anti-TLT-1 arm mAb1047; also called mAb0873 x mAb1047
B6: biAb0094 (bispecific antibody, human IgG4 S228P, kappa)
heavy 1: B1 heavy 1 with Q1D, A108W, G110D, Y111P
light 1: B5 light 1
heavy 2: not shown
light 2: B1 light 2 with Q33N
notes: Duobody, constant domain type H (IgG4): anti-FVII(a) arm mAb0873, anti-TLT-1 arm mAb1049; also called mAb0873 x mAb1049
B7: biAb0014 (bispecific antibody, human IgG4 S228P, kappa)
heavy 1: B1 heavy 1 with Q1D, A108W, G110D, Y111P
light 1: B5 light 1
heavy 2: not shown
light 2: B1 light 2
notes: also called mAb0873 x mAb1076
B8: biAb0019 (bispecific antibody, human IgG4 S228P, kappa)
heavy 1: B1 heavy 1 with Q1D, A108W, G110D, Y111P
light 1: B5 light 1
heavy 2: not shown
light 2: B1 light 2 with Q33P
notes: also called mAb0873 x mAb1038
B9: mAb0048 (antibody, human IgG4 S228P, kappa, V domains shown)
VH: DVQLQESGPGLVEPSQSLSLTCTVTGYSITSDCAWSWIRQFPGNKLEWMGYINYSGSTNYNPSLKSRISVTRDTSKNQFFLRLSSVTAEDTATYYCTRSVNYYGNSFAVGYWGQGTSVTVSS
VL: DIVMTQSPATLSVTAGDRVSLSCRASQGISDYLHWYQQKSHESPRLLIKYTSQPVSGIPSRFSGSGSGSEFTLSINSVEPEDVGVYYCQNGHSFPLTFGAGTKLELKR
notes: murine variable domains, human IgG4 S228P constant domain (type A), human kappa; also called 11F2 murine/human chimera

Numbering of substitutions follows the chain as printed. Names may count otherwise.

One assay has as its target T1, recombinant human activated FVII (FVIIa). As to the kind of experiment: cell-based or functional assay.
For the molecule B1, the “Stimulation (fold): FXa generated by FVIIa with lipidated TLT-1 and 100 nM biAb, relative to free FVIIa” value (“Stimulation (fold) … relative to free FVIIa” below) came out at 29.2 fold.

For a further assay the target is unchanged. As to the kind of experiment: dissociation constant listed with the stimulatory activities (SPR).
The term Kd denotes the free concentration of one partner at which half of the binding sites on the other are occupied at equilibrium, for simple one-to-one binding. For B2, the dissociation constant Kd was 0.06 nM.

As for B3, the Kd came to 0.06 nM.

As for B1, the Kd turned out to be 0.06 nM.

For B4, the Kd is 0.06 nM.

The target of another assay is T2, sTLT1 (SEQ ID No: 3 with six histidine …). Described as above.
With B2, the Kd was 75 nM.

In the case of B3, the Kd was determined as 19 nM.

B1 showed a Kd of 2.9 nM.

Take B4: binding was characterised by a dissociation constant (Kd) of 320 nM.

Another assay addresses T1, recombinant human activated FVII (FVIIa). As to the kind of experiment: cell-based or functional assay. This is another data set of the same source.
B2: the “Stimulation (fold) … relative to free FVIIa” value came out at 13.9 fold.

For B5, the “Stimulation (fold) … relative to free FVIIa” value was 5.8 fold.

In the case of B3, the “Stimulation (fold) … relative to free FVIIa” value was found to be 18.7 fold.

Consider B1, for which the “Stimulation (fold) … relative to free FVIIa” value turned out to be 29.2 fold.

For the molecule B6, the “Stimulation (fold) … relative to free FVIIa” value was 5.4 fold.

As to B7, the “Stimulation (fold) … relative to free FVIIa” value came out at 8 fold.

With B4, the “Stimulation (fold) … relative to free FVIIa” value was 11.1 fold.

For the molecule B8, the “Stimulation (fold) … relative to free FVIIa” value came out at 9.4 fold.

For the next assay, the target named is T2, sTLT1 (SEQ ID No: 3 with six histidine …). The assay is described as follows: SPR, Biacore T200, 25 C; biAb captured on anti-human IgG, sTLT1 injected; 1:1 model. The method, then:
(§1) Binding of sTLT1 (corresponding to SEQ ID No: 3 with six histidine residues added at the C-terminus) to biAb from (Example 4) was probed by surface plasmon resonance (Biacore T200) at 25° C. Anti-human IgG was immobilised on a CM5 sensor chip (both supplied by GE Healthcare) using standard amine coupling chemistry. Purified biAbs according to Table 21 (1 nM) were injected at a flow rate of 10 μl/min for 1 min. Subsequently, sTLT1, between 0 and 60 μM, were injected at a flow rate of […] for 3 min to allow for binding to the biAb followed by a 3 min buffer injection allowing for dissociation from the biAb. The running buffer was prepared by diluting 10-fold the 10×HBS-P buffer (supplied by GE Healthcare) and supplemented with 1 mg/ml BSA and 5 mM CaCl₂) to give 10 mM HEPES, 150 mM NaCl, 0.05% v/v Polysorbate 20, pH 7.4, 5 mM CaCl₂), 1 mg/ml bovine serum albumin (BSA). The running buffer was also used for dilution of biAb and sTLT1 samples. Regeneration of the chip was achieved using recommended regeneration buffer consisted of 3M MgCl2 (supplied by GE Healthcare). Binding data were analysed according to a 1:1 model using BiaEvaluation 4.1 supplied by the manufacturer (Biacore AB, Uppsala, Sweden).
(In general: Surface plasmon resonance follows binding to a sensor surface in real time, without labels.)
Take B2: the equilibrium dissociation constant (Kd) was 75 nM.

Molecule B3 had an equilibrium dissociation constant (Kd) of 19 nM.

Regarding B1, the Kd came to 2.9 nM.

Turning to B4, the Kd worked out at 320 nM.

In another assay the target is T1, recombinant human activated FVII (FVIIa). The assay is described as follows: dissociation constant listed with the stimulatory activities; value of the anti-FVII(a) arm mAb0873.
As to B5, the Kd is 600 nM.

For B6, the dissociation constant (Kd) turned out to be 600 nM.

Regarding B7, the dissociation constant Kd amounted to 600 nM.

Regarding B8, the dissociation constant Kd is 600 nM.

The next assay concerns the target T3, recombinant human activated Factor VII …. As to the kind of experiment: SPR (Biacore T200), captured antibody, FVIIa injected at 5-135 nM, 1:1 model. The method, then: Anti-murine IgG (by GE Healthcare) was immobilised on a CM4 sensor chip using standard amine coupling chemistry kit (both supplied by GE Healthcare). […] The running buffer was prepared by diluting 10-fold the 10×HBS-P buffer (supplied by GE Healthcare) and supplemented with 1 mg/ml BSA and 5 mM CaCl₂) to give 10 mM HEPES, 150 mM NaCl, 0.05% v/v Polysorbate 20(P20), pH 7.4, 5 mM CaCl₂), 1 mg/ml bovine serum albumin (BSA). […] Regeneration of the chip was achieved using regeneration buffer consisting of 10 mM Gly-HCl pH 1.7 (supplied by GE Healthcare). Binding data were analysed according to a 1:1 model using BiaEvaluation 4.1 supplied by the manufacturer (Biacore AB, Uppsala, Sweden).
With B9, the Kd was determined as 0.029 nM.

Another assay concerns the target T2, sTLT1 (SEQ ID No: 3 with six histidine …). As to the kind of experiment: KD (TLT-1) listed for the biAbs of Example 30 (SPR value of Table 21). The method, then: as §1
Molecule B2 registered a Kd of 75 nM.

Molecule B3 registered a Kd of 19 nM.

As for B1, the affinity, expressed as Kd, was 2.9 nM.

B4: the Kd was 320 nM.

The target is the same in the next assay. The assay is described as follows: dissociation constant listed with the stimulatory activities; value of the anti-TLT-1 arm.
Molecule B5 gave a dissociation constant Kd of 75 nM.

Take B6: the Kd amounted to 320 nM.

Take B7: the Kd was 2.9 nM.

Consider B8, for which the equilibrium dissociation constant (Kd) turned out to be 19 nM.

In the next assay the target is T3, recombinant human activated Factor VII …. As to the kind of experiment: cell-based or functional assay.
With B9, the “AT inhibition (kinh %)” value stood at 109%.

Values taken from patent US20220064329A1 (Novo Nordisk, published 2022).
